From patent US20050215503, “HIF oligonucleotide decoy molecules” (published 2005)

Target: HIF-1 (HIF-1alpha/HIF-1beta (ARNT) heterodimer) (UniProt Q16665;P27540 Q16665:1-826,P27540:2-789)
Assay: competition; TransAM absorbance ratio vs wild-type control at 2.5; lower = better (all Table 2B lines); 1.22 in Table 5
Settings: protein: extract; tags: none (endogenous, nuclear extract)

HIF-1 (HIF-1alpha/HIF-1beta (ARNT) heterodimer), sequence (Q16665 whole entry, chain 1 of 2): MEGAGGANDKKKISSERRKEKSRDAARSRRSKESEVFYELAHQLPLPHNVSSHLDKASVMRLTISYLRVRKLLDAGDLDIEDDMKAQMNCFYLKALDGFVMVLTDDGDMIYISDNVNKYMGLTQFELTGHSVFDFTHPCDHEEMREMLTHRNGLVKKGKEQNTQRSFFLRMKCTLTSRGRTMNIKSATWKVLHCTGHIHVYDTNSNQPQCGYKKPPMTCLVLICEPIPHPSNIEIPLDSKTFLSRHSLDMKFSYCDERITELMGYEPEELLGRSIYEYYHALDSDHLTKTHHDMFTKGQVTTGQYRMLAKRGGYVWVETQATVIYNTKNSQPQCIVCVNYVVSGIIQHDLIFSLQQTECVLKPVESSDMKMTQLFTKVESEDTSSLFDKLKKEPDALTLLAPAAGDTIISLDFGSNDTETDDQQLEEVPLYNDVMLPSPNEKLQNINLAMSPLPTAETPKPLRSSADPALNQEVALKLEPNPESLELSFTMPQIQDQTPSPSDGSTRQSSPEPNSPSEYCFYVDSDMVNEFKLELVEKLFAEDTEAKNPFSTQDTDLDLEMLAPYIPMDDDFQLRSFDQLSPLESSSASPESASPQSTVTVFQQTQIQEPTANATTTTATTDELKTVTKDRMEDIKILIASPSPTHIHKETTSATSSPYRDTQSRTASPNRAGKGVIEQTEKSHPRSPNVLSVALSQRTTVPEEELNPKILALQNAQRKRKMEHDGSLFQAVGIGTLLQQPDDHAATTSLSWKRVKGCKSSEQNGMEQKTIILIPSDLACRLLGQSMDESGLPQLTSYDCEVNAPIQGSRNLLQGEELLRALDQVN
HIF-1 (HIF-1alpha/HIF-1beta (ARNT) heterodimer), sequence (P27540 2-789, chain 2 of 2): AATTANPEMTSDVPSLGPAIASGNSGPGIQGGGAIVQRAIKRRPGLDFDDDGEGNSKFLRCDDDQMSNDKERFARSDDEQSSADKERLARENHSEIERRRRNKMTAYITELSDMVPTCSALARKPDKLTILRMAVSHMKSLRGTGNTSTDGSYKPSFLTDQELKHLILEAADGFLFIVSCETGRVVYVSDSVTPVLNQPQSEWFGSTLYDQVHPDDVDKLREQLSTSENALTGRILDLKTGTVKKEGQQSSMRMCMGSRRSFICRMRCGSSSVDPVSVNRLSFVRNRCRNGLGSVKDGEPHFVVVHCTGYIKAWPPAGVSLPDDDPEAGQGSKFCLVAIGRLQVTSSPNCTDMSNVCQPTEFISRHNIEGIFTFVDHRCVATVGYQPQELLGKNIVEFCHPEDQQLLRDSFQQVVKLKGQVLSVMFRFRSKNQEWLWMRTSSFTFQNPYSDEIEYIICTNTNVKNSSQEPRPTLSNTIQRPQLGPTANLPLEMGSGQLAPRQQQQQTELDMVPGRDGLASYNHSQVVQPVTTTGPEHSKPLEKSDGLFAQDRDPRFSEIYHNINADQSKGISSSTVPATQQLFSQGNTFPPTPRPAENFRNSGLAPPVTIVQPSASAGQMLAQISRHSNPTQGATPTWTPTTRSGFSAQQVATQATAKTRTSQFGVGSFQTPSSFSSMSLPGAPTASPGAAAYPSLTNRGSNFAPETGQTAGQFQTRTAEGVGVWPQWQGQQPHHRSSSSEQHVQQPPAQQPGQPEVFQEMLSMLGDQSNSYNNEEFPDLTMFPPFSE

B1: decoy 895/896 (dsDNA)
DNA 1: CACCAGCGTACGTGCCTCAGG
DNA 2: CCTGAGGCACGTACGCTGGTG
How did the binding signal turn out when B1 was run?
Its binding signal is 1.13 ratio.
